Measurements: patent US20180280532A1

Biological target: human Trop-2 (human) (UniProt P09758)
Test: cell binding assay, cell line not named

Chain of human Trop-2 (human) (P09758 27-323): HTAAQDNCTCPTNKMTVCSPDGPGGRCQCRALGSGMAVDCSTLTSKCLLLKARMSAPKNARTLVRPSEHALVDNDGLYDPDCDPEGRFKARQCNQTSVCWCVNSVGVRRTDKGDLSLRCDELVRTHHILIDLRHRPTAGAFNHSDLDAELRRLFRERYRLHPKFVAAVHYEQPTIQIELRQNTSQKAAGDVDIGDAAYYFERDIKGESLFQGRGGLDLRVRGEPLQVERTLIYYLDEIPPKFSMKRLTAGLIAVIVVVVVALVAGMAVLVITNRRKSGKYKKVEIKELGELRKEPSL

hRS7-CL2A-SN-38 (antibody) was tested, and the Kd was 1.2 nM.
